# Assay results: FireProtDB (doi:10.1021/bi991757+)
# B1: Regulatory protein cro wild type, P03036 (protein)
# chain: MQTLSERLKKRRIALKMTQTELATKAGVKQQSIQLIEAGVTKRPRFLFEIAMALNCDPVWLQYGTKRGKAA
# Settings: Enterobacteria phage 434, pH 6, Urea, CD, KH2PO4 25 mM, KCl 100 mM, reversible: yes, whole UniProt chain shown
protein,measurement,setting,value
B1,denaturant m value,5 °C,0.99 kcal/mol/M
same,denaturant midpoint (higher = more stable),5 °C,3.32 M
same,unfolding free energy,5 °C,3.28 kcal/mol
same,denaturant m value,15 °C,0.91 kcal/mol/M
same,denaturant midpoint (higher = more stable),15 °C,3.56 M
same,unfolding free energy,15 °C,3.23 kcal/mol
same,denaturant m value,20 °C,1.01 kcal/mol/M
same,denaturant midpoint (higher = more stable),20 °C,3.42 M
same,unfolding free energy,20 °C,3.44 kcal/mol
same,denaturant m value,25 °C,1 kcal/mol/M
same,denaturant midpoint (higher = more stable),25 °C,3.07 M
same,unfolding free energy,25 °C,3.05 kcal/mol
